In patent US20230272041A1 (DRAGONFLY THERAPEUTICS, published 2023):
Positions count from the first letter of the chain named.

Columns and labels:
cynomolgus monkey FcRn = cynomolgus monkey FcRn (cynomolgus monkey, UniProt Q8SPV9 24-297; Q8SPW0 21-119); test: FcRn binding at pH 6.0, reference IgG1 isotype control trastuzumab (method not stated in the paragraph)
human FcRn = human FcRn (human, UniProt P55899 24-297; P61769 21-119); test: as above
[1] = target: T1, recombinant human CD32a R131 allele (human, UniProt P12318 36-218, limits assumed, site-specific biotinylation (site not stated)); test: SPR (Biacore 8K), receptor captured on the chip via site-specific biotinylation; qualitative assessment
T1 construct: also called FcγRIIA R131
T1 sequence (looked up): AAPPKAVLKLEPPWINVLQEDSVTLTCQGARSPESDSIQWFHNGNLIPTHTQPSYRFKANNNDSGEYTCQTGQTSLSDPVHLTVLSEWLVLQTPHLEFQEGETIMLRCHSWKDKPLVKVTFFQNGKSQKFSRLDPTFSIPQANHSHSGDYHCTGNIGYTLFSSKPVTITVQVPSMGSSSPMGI

[2] = target: recombinant cynomolgus CD16 (cynomolgus, UniProt Q8SPW2 17-208, site-specific biotinylation (site not stated)); test: as above
[3] = target: T2, recombinant human CD32a H131 allele (human, UniProt P12318 36-218, limits assumed, site-specific biotinylation (site not stated)); test: as above
T2 construct: also called FcγRIIA H131
T2 sequence (looked up): T1 sequence (looked up) with R132H

recombinant human CD16b = target: T3, recombinant human CD16b (human, UniProt O75015 17-200, site-specific biotinylation (site not stated)); test: as above
T3 construct: also called FcγRIIIB

recombinant human CD32b = target: T4, recombinant human CD32b (human, UniProt P31994 46-217, limits assumed, site-specific biotinylation (site not stated)); test: as above
T4 construct: also called FcγRIIB
T4 sequence (looked up): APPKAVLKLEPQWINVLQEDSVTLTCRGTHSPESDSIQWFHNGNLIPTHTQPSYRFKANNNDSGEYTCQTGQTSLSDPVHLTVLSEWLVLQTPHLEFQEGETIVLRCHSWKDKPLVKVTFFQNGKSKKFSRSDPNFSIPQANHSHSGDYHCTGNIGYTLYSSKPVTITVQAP

recombinant human CD64 = target: T5, recombinant human CD64 (human, UniProt P12314 16-288, limits assumed, site-specific biotinylation (site not stated)); test: as above
T5 construct: also called FcγRI

[4] = target: T6, recombinant human CD16a V158 allele (human, UniProt P08637 17-208, site-specific biotinylation (site not stated)); test: as above
T6 construct: also called FcγRIIIA V158

[5] = target: T7, recombinant human CD16a F158 allele (human, UniProt P08637 17-208, site-specific biotinylation (site not stated)); test: as above
T7 construct: also called FcγRIIIA F158
T7 sequence (P08637 17-208 limits assumed): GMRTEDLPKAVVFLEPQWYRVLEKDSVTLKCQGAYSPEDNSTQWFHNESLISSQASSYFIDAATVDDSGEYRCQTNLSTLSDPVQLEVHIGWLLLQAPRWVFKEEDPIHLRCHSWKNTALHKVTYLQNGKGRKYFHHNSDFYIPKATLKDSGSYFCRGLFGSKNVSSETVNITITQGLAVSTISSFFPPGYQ

Chain of human FcRn (P55899 24-297 limits assumed, form in doubt, chain 1 of 2): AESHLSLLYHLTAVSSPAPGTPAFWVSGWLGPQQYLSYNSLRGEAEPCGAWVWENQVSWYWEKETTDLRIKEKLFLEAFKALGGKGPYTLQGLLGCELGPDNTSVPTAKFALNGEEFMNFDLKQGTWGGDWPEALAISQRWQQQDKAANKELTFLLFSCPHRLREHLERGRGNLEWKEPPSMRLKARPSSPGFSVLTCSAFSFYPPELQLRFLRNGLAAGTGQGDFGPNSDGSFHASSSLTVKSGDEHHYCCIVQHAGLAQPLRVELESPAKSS
Chain of human FcRn (P61769 21-119 limits assumed, form in doubt, chain 2 of 2): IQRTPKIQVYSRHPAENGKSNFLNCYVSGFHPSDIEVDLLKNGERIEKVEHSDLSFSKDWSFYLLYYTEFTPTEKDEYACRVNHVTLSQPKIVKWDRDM
Chain of cynomolgus monkey FcRn (Q8SPV9 24-297 limits assumed, chain 1 of 2): as the sequence (P55899 24-297 limits assumed, form in doubt, chain 1 of 2) above, with N39D, E44Q, G99S, S189G, S190N, L217M, S269T counted along it
Chain of cynomolgus monkey FcRn (Q8SPW0 21-119 limits assumed, chain 2 of 2): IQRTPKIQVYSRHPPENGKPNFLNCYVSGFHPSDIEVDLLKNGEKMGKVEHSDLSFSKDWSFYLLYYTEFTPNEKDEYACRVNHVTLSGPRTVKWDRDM
T3 sequence (O75015 17-200 limits assumed): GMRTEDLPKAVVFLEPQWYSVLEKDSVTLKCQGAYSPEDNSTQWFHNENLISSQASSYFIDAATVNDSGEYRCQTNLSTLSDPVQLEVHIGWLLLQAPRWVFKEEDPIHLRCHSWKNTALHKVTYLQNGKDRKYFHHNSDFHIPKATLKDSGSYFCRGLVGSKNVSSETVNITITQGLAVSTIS
T5 sequence (P12314 16-288 limits assumed): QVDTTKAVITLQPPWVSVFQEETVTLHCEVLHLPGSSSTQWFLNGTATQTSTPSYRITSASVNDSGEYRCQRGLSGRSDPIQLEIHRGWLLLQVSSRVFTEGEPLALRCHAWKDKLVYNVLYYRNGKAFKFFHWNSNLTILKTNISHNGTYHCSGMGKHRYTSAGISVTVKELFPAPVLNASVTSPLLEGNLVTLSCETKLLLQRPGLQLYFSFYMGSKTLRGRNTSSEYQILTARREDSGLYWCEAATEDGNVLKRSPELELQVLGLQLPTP
Chain of recombinant cynomolgus CD16 (Q8SPW2 17-208 limits assumed): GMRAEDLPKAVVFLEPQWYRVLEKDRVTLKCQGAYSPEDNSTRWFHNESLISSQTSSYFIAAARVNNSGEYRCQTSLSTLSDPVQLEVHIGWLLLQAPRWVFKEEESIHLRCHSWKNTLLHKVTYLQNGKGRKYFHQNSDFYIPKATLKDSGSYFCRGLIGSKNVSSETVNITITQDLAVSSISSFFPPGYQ
T6 sequence (P08637 17-208 F176V limits assumed): as the sequence (P08637 17-208 limits assumed) above, with F160V counted along it

B1: DF-hIL-12-Fc si (Fc fusion)
chain 1: IWELKKDVYVVELDWYPDAPGEMVVLTCDTPEEDGITWTLDQSSEVLGSGKTLTIQVKEFGDAGQYTCHKGGEVLSHSLLLLHKKEDGIWSTDILKDQKEPKNKTFLRCEAKNYSGRFTCWWLTTISTDLTFSVKSSRGSSDPQGVTCGAATLSAERVRGDNKEYEYSVECQEDSACPAAEESLPIEVMVDAVHKLKYENYTSSFFIRDIIKPDPPKNLQLKPLKNSRQVEVSWEYPDTWSTPHSYFSLTFCVQVQGKSKREKKDRVFTDKTSATVICRKNASISVRAQDRYYSSSWSEWASVPCSPKSSDKTHTCPPCPAPEAAGGPSVFLFPPKPKDTLMISRTPEVTCVVVDVSHEDPEVKFNWYVDGVEVHNAKTKPREEQYNSTYRVVSVLTVLHQDWLNGKEYKCKVSNKALAAPIEKTISKAKGQPREPQVCTLPPSRDELTENQVSLTCLVKGFYPSDIAVEWESNGQPENNYKTTPPVLDSDGSFFLYSWLTVDKSRWQQGNVFSCSVMHEALHNHYTQKSLSLSPG
chain 2: RNLPVATPDPGMFPCLHHSQNLLRAVSNMLQKARQTLEFYPCTSEEIDHEDITKDKTSTVEACLPLELTKNESCLNSRETSFITNGSCLASRKTSFMMALCLSSIYEDLKMYQVEFKTMNAKLLMDPKRQIFLDQNMLAVIDELMQALNFNSETVPQKSSLEEPDFYKTKIKLCILLHAFRIRAVTIDRVMSYLNASGGGGSGGGGSGGGGSEPKSSDKTHTCPPCPAPEAAGGPSVFLFPPKPKDTLMISRTPEVTCVVVDVSHEDPEVKFNWYVDGVEVHNAKTKPREEQYNSTYRVVSVLTVLHQDWLNGKEYKCKVSNKALAAPIEKTISKAKGQPREPRVYTLPPCRDELTKNQVSLTCLVKGFYPSDIAVEWESNGQPENNYKTTPPVLVSDGSFTLYSKLTVDKSRWQQGNVFSCSVMHEALHNHYTQKSLSLSPG
notes: also called DF IL-12-Fc; hIL-12-Fc-LALAPA
fold difference in binding affinity value against trastuzumab (cynomolgus monkey FcRn): < 1.5 fold | fold difference in binding affinity value against trastuzumab (human FcRn): < 1.5 fold | binding result [1]: no binding | binding result [2]: no binding | binding result [3]: no binding | binding result (recombinant human CD16b): no binding | binding result (recombinant human CD32b): no binding | binding result (recombinant human CD64): no binding | binding result [4]: no binding | binding result [5]: no binding
